The record followed here is publication PMC5823870 (Scientific Reports, 2018).

The Km is the substrate concentration at which the rate is half of its maximum.

The test system of data set [1] is O=S(O)(O)=S. Nature of the data set: purified protein. As to conditions: 12 mM potassium phosphate pH 7.4, 25 °C, cyanide 12 mM as sulfur acceptor (methods print potassium cyanate), thiosulfate 0 to 100 mM.
In data set [2] the target is Blh DUF442 domain (ST domain) (Xylella fastidiosa, UniProt Q9PFB0). As to conditions: 12 mM potassium phosphate pH 7.4, 25 °C; 12 mM thiosulfate; cyanide as sulfur acceptor.
Chain of Blh DUF442 domain (ST domain) (Q9PFB0 1-141 limits assumed): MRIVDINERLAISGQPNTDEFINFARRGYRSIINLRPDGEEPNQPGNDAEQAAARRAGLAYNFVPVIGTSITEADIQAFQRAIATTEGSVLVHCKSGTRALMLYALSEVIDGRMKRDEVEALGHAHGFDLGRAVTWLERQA

Take “full-length Blh (Xylella fastidiosa 9a5c)”: the Km in data set [1] was 6.2 mM. As for `O=S(=O)(O)S` [thiosulfate], the “rhodanese assay, iron-thiocyanate absorbance at 460 nm” value in data set [2] is “catalyze the transfer of the sulfane sulfur of thiosulfate to cyanide”.
